Earlier results in paper PMC3094721.

Biological target: ChemR23 (Homo sapiens) (UniProt Q99788)
Test: radioligand

Sequence of ChemR23 (Homo sapiens) (Q99788 whole entry): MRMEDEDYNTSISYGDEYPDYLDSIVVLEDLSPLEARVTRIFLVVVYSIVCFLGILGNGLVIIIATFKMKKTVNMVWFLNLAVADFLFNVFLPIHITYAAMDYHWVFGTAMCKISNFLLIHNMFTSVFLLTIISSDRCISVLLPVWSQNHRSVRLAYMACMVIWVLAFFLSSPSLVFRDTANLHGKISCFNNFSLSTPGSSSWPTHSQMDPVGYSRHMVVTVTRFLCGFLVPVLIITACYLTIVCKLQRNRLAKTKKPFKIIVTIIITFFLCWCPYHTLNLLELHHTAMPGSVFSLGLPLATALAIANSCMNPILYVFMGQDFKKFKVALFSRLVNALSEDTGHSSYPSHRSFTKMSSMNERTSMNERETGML
Sequence of chemerin peptide (Q99969 21-157): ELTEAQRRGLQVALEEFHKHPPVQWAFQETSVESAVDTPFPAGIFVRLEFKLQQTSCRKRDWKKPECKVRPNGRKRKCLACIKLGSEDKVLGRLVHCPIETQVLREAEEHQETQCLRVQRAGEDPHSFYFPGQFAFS

Ki: 429 nM
Substance: chemerin peptide (from UniProt Q99969)
